# “And” between values parts separate entries of the source, which are not always exact repeats. Identical values can stand only once.
# Experiments:
# [1] = target: human PD-1 expressed on reporter Jurkat T cells (PD-1 Effector Cells) (human, UniProt Q15116 25-288); assay: cell-based or functional assay
# [2] = target: T1, human FcγRIa transiently expressed on CHO-S cells (human, UniProt P12314 16-374); assay: flow cytometry on CHO-S cells transiently expressing human FcγRIa, PE-conjugated goat anti-human IgG F(ab')2, % PE+ cells
# T1 construct: whole, on cells; also called cell surface expressed FcγRIa
# T1 sequence (P12314 16-374): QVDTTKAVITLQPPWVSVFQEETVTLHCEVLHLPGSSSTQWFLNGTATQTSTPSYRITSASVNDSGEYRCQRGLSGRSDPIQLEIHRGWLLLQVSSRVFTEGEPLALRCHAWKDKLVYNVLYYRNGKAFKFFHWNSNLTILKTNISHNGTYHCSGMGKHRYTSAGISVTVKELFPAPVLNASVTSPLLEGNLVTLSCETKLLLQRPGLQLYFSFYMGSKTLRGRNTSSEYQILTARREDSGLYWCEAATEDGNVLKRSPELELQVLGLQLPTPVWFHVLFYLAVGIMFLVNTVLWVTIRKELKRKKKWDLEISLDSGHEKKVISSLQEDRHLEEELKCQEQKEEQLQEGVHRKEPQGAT
# Method: Cells were centrifuged, supernatant was removed, and cells (30,000 cells in 50 μL) were incubated with 50 μL of the antibody dilutions for 30 min at 4° C. Cells were washed twice with GMB FACS buffer and incubated with 50 μL secondary antibody (PE-conjugated goat-anti-human IgG F(ab′)2; 1:500) for 30 min at 4° C., protected from light. Cells were washed twice with GMB FACS buffer and resuspended in GMB FACS buffer supplemented with 2 mM EDTA and DAPI viability marker (1:5,000). Antibody binding to viable cells was analyzed by flow cytometry on an Intellicyt iQue PLUS Screener (Intellicyt Corporation) using FlowJo software by gating on PE-positive, DAPI-negative cells. Binding curves were analyzed using non-linear regression analysis (four-parameter dose-response curve fits) in GraphPad Prism.
# Chain of human PD-1 expressed on reporter Jurkat T cells (PD-1 Effector Cells) (Q15116 25-288): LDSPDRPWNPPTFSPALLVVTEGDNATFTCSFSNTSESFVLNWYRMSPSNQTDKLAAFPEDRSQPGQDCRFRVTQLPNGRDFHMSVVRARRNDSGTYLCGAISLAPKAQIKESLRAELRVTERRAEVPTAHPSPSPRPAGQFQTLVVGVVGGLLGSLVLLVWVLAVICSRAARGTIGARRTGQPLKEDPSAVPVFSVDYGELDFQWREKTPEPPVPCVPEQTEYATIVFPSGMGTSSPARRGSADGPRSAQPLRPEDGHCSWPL
Binder,"EC50 of PD-1/PD-L1 checkpoint blockade (luminescence, reporter assay) [1]",EC50 (read off the curve) [2] [µg/mL]
IgG1-PD1 (antibody) heavy: QVQLVESGGGLVQPGTSLRLSCSVSGFSLYSYNMGWVRQAPGKGLEYIGIISGGTIGHYASWAKGRFTISRDTSKTTLYLQMNSLTTEDTATYFCARAFYDDYDYNVWGPGTLVTVSSASTKGPSVFPLAPSSKSTSGGTAALGCLVKDYFPEPVTVSWNSGALTSGVHTFPAVLQSSGLYSLSSVVTVPSSSLGTQTYICNVNHKPSNTKVDKRVEPKSCDKTHTCPPCPAPEFERGPSVFLFPPKPKDTLMISRTPEVTCVVVDVSHEDPEVKFNWYVDGVEVHNAKTKPREEQYNSTYRVVSVLTVLHQDWLNGKEYKCKVSNKALPAPIEKTISKAKGQPREPQVYTLPPSREEMTKNQVSLTCLVKGFYPSDIAVEWESNGQPENNYKTTPPVLDSDGSFFLYSKLTVDKSRWQQGNVFSCSVMHEALHNHYTQKSLSLSPG light: AIQLTQSPSSLSASVGGTVTITCQSSQSVYGNNQLSWYQQKPGQPPKLLIYQASKLETGVPSRFRGSGSGTQFTLTISSLQSEDFATYYCAGGYSSSSDTTFGGGTEVVVKRTVAAPSVFIFPPSDEQLKSGTASVVCLLNNFYPREAKVQWKVDNALQSGNSQESVTEQDSKDSTYSLSSTLTLSKADYEKHKVYACEVTHQGLSSPVTKSFNRGEC,0.165 µg/mL and 1.12 nM,
"IgG1-ctrl (antibody, also called IgG1-b12 with wild-type Fc region) heavy: not shown light: EIVLTQSPGTLSLSPGERATFSCRSSHSIRSRRVAWYQHKPGQAPRLVIHGVSNRASGISDRFSGSGSGTDFTLTITRVEPEDFALYYCQVYGASSYTFGQGTKLERKRTVAAPSVFIFPPSDEQLKSGTASVVCLLNNFYPREAKVQWKVDNALQSGNSQESVTEQDSKDSTYSLSSTLTLSKADYEKHKVYACEVTHQGLSSPVTKSFNRGEC",,~0.01

# Reference: patent US20250002600A1 (Genmab, published 2025)
